# According to patent US20250320282A1 (MABYLON, published 2025):
# Positions count from the first letter of the chain named.
# T1: Ara h 6 (Arachis hypogaea allergen 6) (Arachis hypogaea, UniProt Q647G9 22-145)
# T1 construct: Peanut allergen; also called Ara h 6.0101; nAra h 6
# T1 sequence: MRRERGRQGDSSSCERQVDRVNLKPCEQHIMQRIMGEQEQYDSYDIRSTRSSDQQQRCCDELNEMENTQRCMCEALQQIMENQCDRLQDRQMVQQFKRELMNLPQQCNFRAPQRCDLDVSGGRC
# T2: Ara h 2 (Arachis hypogaea allergen 2) (Arachis hypogaea, UniProt Q6PSU2 22-172)
# T2 construct: Peanut allergen; also called nAra h 2; natural Ara h 2
# T2 sequence: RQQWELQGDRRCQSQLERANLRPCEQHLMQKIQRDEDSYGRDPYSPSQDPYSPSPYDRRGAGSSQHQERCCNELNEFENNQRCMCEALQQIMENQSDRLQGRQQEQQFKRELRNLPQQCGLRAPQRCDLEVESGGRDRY
# B1: 2F8 (antibody, V domains shown)
# VH: EVQLVESGGGLVKPGGSLRLSCAASGFIFSDYNMNWVRQAPGKGLEWVSSITRSSRTIYYADSVKGRFTISRDNAKNSLHLQMNSLRDADTAVYYCAREDFDVSTGPYYMDVWGNGTTVIVSS
# VL: EIVLTQSPGTLSLSPGERATLSCRASQSVSNMFLVWYQQKPGQAPRLLMYGASTRATDIPDRFSGSGSGTDFTLTISRLEPEDFAVYYCQQNGNSPYTFGQGTKLEIK
# notes: Fully human monoclonal antibody, wild-type variable regions; tested as IgG; also called MY006-2F8
# B2: 7G6 (antibody, V domains shown)
# VH: QVQLVESGGGVVQPGRSLRLSCAASGIAFNDYTMHWVRRSPDKGLEWVAAISYGGTNKYYADSVKGRFTISRDSSKNTLFLQMDSLRVEDTAVYYCARDSGYRSLLHWGQGTLVTVSS
# VL: EIVLTQSPLSLPVTPGEPASISCRSSQSLVHRNGYNYLDWYLQKPGQSPQLLIYMASKRASGVPDRFSGSGSGTEFTLKISRVEAEDVGIYYCMQALQTWTFGQGTKVEVN
# notes: Fully human monoclonal antibody, wild-type variable regions; tested as IgG; also called MY006-7G6
# B3: MY006-2F8 Fab Lg (Fab, V domains shown)
# VH: B1 VH
# VL: B1 VL with D58G
# notes: Germlined variant, IgG1-Fab format; also called 2F8 Lg
# B4: MY006-2F8 Fab Lf (Fab, V domains shown)
# VH: B1 VH
# VL: B1 VL with M49I, D58G
# notes: Germlined variant, IgG1-Fab format; also called 2F8 Lf
# B5: MY006-2F8 Fab Hg Lg (Fab, V domains shown)
# VH: B1 VH with K13Q, H80Y, A89E, N115K, I120T
# VL: B1 VL with D58G
# notes: Germlined variant, IgG1-Fab format
# B6: MY006-2F8 Fab Hg (Fab, V domains shown)
# VH: B1 VH with K13Q, H80Y, A89E, N115K, I120T
# VL: B1 VL
# notes: Germlined variant, IgG1-Fab format; also called 2F8 Hg
# B7: MY006-2F8 Fab Hg Lf (Fab, V domains shown)
# VH: B1 VH with K13Q, H80Y, A89E, N115K, I120T
# VL: B1 VL with M49I, D58G
# notes: Germlined variant, IgG1-Fab format; also called 2F8: Hg/Lf
# B8: MY006-7G6 Fab Hg Lg (Fab, V domains shown)
# VH: B2 VH with S40A, D42G, F80Y, D84N, V88A
# VL: B2 VL with E75D, I90V, V110I, N111K
# notes: as for B5
# B9: MY006-7G6 Fab Lg (Fab, V domains shown)
# VH: B2 VH
# VL: B2 VL with E75D, I90V, V110I, N111K
# notes: Germlined variant, IgG1-Fab format; also called 7G6 Lg
# B10: MY006-7G6 Fab Hf Lf (Fab, V domains shown)
# VH: B2 VH with R39Q, S40A, D42G, S74N, F80Y, D84N, V88A
# VL: B2 VL with E1D, L4M, E75D, I90V, V110I, N111K
# notes: as for B5
# B11: MY006-7G6 Fab Hf Lg (Fab, V domains shown)
# VH: B2 VH with R39Q, S40A, D42G, S74N, F80Y, D84N, V88A
# VL: B2 VL with E75D, I90V, V110I, N111K
# notes: Germlined variant, IgG1-Fab format; also called 7G6: Hf/Lg
# B12: MY006-7G6 Fab Hg Lf (Fab, V domains shown)
# VH: B2 VH with S40A, D42G, F80Y, D84N, V88A
# VL: B2 VL with E1D, L4M, E75D, I90V, V110I, N111K
# notes: as for B5
# B13: MY006-7G6 Fab Hg (Fab, V domains shown)
# VH: B2 VH with S40A, D42G, F80Y, D84N, V88A
# VL: B2 VL
# notes: Germlined variant, IgG1-Fab format; also called 7G6 Hg
# B14: MY006-7G6 Fab Hf (Fab, V domains shown)
# VH: B2 VH with R39Q, S40A, D42G, S74N, F80Y, D84N, V88A
# VL: B2 VL
# notes: Germlined variant, IgG1-Fab format; also called 7G6 Hf
# B15: MY006-7G6 Fab Lf (Fab, V domains shown)
# VH: B2 VH
# VL: B2 VL with E1D, L4M, E75D, I90V, V110I, N111K
# notes: Germlined variant, IgG1-Fab format; also called 7G6 Lf
# B16: MY006-15E3 Fab Hg Lg (Fab, V domains shown)
# VH: EVQLVESGGGLVQPGGSLRLSCAASGFKFSTFYMTWIRQAPGKGLEWVANIKQDGSEKDYLDSVRGRFTISRDNAKSSLYLQMNSLRAEDTAVYYCTRNGLQDSYSGDFFDHWGQGTLVTVSS
# VL: QSVLTQPPSVSAAPGQKVTISCSGTGSNIGHNYVSWYQQLPGTAPKLLIFDNTKRPSGIPDRFSGSKSGSSATLGITGLQTGDEADYFCATWDADLSAVLFGGGTKLTVL
# notes: as for B5
# B17: MY006-15E3 Fab Hg (Fab, V domains shown)
# VH: B16 VH
# VL: B16 VL with V10I, G42R, K46R, D86H
# notes: Germlined variant, IgG1-Fab format; also called 15E3 Hg
# B18: MY006-15E3 Fab Hg Lf (Fab, V domains shown)
# VH: B16 VH
# VL: B16 VL with F50Y, S70T, F88Y
# notes: as for B5
# B19: MY006-15E3 Fab Lf (Fab, V domains shown)
# VH: B16 VH with G10A, T69N, S78V, S85T, R87S, E89D, A92G, T117I
# VL: B16 VL with F50Y, S70T, F88Y
# notes: Germlined variant, IgG1-Fab format; also called 15E3 Lf
# B20: MY006-15E3 Fab Lg (Fab, V domains shown)
# VH: B16 VH with G10A, T69N, S78V, S85T, R87S, E89D, A92G, T117I
# VL: B16 VL
# notes: Germlined variant, IgG1-Fab format; also called 15E3 Lg
# B21: MY006-15E3 Fab Hf (Fab, V domains shown)
# VH: B16 VH with I37V, S77N
# VL: B16 VL with V10I, G42R, K46R, D86H
# notes: Germlined variant, IgG1-Fab format; also called 15E3 Hf
# B22: MY006-15E3 Fab Hf Lf (Fab, V domains shown)
# VH: B16 VH with I37V, S77N
# VL: B16 VL with F50Y, S70T, F88Y
# notes: as for B5
# B23: MY006-15E3 Fab Hf Lg (Fab, V domains shown)
# VH: B16 VH with I37V, S77N
# VL: B16 VL
# notes: Germlined variant, IgG1-Fab format; also called 15E3: Hf/Lg
# B24: 15E3_rb_IGHV1S8_J5+IGLV2S2_JL5 (antibody, V domains shown)
# VH: QKQLVESGGGLDQPAGSLKLSCKDSGFTLSTFYMTWVHQAPGKGLEWIANIKQDGSEKDYLDSVRGRFTISSDNTQNMVDLEMNSLTAADMAIYFCARNGLQDSYSGDFFDHWGQGTLVTVSS
# VL: QPALTQPSSVSGALGGSVTITCSGTGSNIGHNYVSWYQQLPGSVPKLLMFDNTKRPSGIPERFSGSKSGTTASLTISGLQPEDEADYYCATWDADLSAVLFGGGTKLTVL
# B25: 7G6_rb_IGHV1S47_J3+IGKV1S19_JK1-2 (antibody, V domains shown)
# VH: QEQLVESGGGLVQPEGSLTLTCKASGFDFSDYTMHWVRQAPGKGPEWIAAISYGGTNKYYADSVKGRFTISRSTSLNTVTLQMTSLTAVDTATYFCARDSGYRSLLHWGQGTLVTVSS
# VL: AAVLTQTPSPVSAAVGGTVTIKCRSSQSLVHRNGYNYLDWYQQKPGQPPKLLIYMASKRASGVPDRFSGSGSGTQFTLTISGVQCDDAATYYCMQALQTWTFGGGTKVVVK
# B26: 7G6_rb_IGHV1S47_J3+IGKV1S19_JK1-3 (antibody, V domains shown)
# VH: B25 VH
# VL: B25 VL with F102L, G104P, V108L, V109E, V110I
# B27: 7G6_rb_IGHV1S47_J3+K66N_IGKV1S19_JK1-2 (antibody, V domains shown)
# VH: B25 VH
# VL: B25 VL with K58N
# notes: Fully rabbit antibody: 7G6 CDRs grafted onto rabbit variable frameworks
# Target: T1, Ara h 6 (Arachis hypogaea allergen 6)
# Experiment: ELISA, antibody titrated on coated Ara h 6
# Experimental: (§1) Monoclonal antibodies 2F8, 7G6, 17H9 and 15E3 were tested for their specificity against the major peanut allergens Ara h 1, 2, 3, and 6 by ELISA (enzyme linked immunosorbent assay). Briefly, ELISA plates were coated with respective Ara h proteins (Arah1: 0.5 ug/ml, Arah2: 0.01 ug/ml, Arah3: 0.1 ug/ml, Arah6: 0.05 ug/ml) overnight at 4° C. Afterwards, plates were blocked with BSA (2% in PBS) for 1 hour at room temperature. Antibody titration series starting from 3 ug/ml was prepared, added to the single ELISA plate wells and incubated for 2 h at room temperature. The read-out was performed by adding anti-hu-IgG-HRP (anti-human-IgG horseradish peroxidase; Jackson ImmunoResearch, West Grove, PA, USA) for 1 h at room temperature. Tetramethylbenzidine substrate solution (TMB, Sigma-Aldrich Chemie GmbH, Buchs, Switzerland) was added, then after 5 minutes of hydrolysis time, the reaction was stopped by the addition of 1 M H₂SO₄ and the absorbances were read at 450 nm.
row,Binder,EC50 [ng/mL]
1,B1,2.46
2,B2,1

# Target: T1, Ara h 6 (Arachis hypogaea allergen 6)
# Experiment: ELISA, Fab titration on coated Ara h 6
# Experimental: Next, the effect of the engineered variable regions on antigen binding was tested. Briefly, ELISA plates were coated with respective Ara h proteins (Ara h 2:0.05 ug/ml, Ara h 6:0.1 ug/ml, Ara h 3 loop (2nd): 0.1 ug/ml) overnight at 4° C. Afterwards, plates were blocked with BSA (2% in PBS) for 1 hour at room temperature. Fab fragment titration series starting from 4 ug/ml was prepared, added to the single ELISA plate wells and incubated for 2 h at room temperature. The read-out was performed by adding anti-hu-kappa/lambda-HRP (anti-kappa Invitrogen (A18853) and anti-lambda abcam (ab99811) for 1 h at room temperature. Tetramethylbenzidine substrate solution (TMB, Sigma-Aldrich Chemie GmbH, Buchs, Switzerland) was added, then after 5 minutes of hydrolysis time, the reaction was stopped by the addition of 1 M H₂SO₄ and the absorbances were read at 450 nm.
row,Binder,binding result
1,B3,binds
2,B4,binds
3,B5,binds
4,B6,binds
5,B7,binds
6,B8,binds
7,B9,binds
8,B10,binds
9,B11,binds
10,B12,binds
11,B13,binds
12,B14,binds
13,B15,binds
14,B16,binds
15,B17,binds
16,B18,binds
17,B19,binds
18,B20,binds
19,B21,binds
20,B22,binds
21,B23,binds

# Target: T2, Ara h 2 (Arachis hypogaea allergen 2)
# Experiment: ELISA, antibody titrated on coated Ara h 2
# Experimental: as §1
row,Binder,EC50 [ng/mL]
1,B1,3.31
2,B2,0.629

# Target: T1, Ara h 6 (Arachis hypogaea allergen 6)
# Experiment: ELISA, purified rabbit antibody
row,Binder,binding result
1,B24,binds
2,B25,binds
3,B26,binds
4,B27,binds
